Assay results reported in US20080267971A1 (published 2008).

T1: Mouse/Human chimeric Ang-2 with the human StuI-TfiI fragment (mouse/human chimera, UniProt O35608 19-496)
T1 construct: also called Stu-Tfil 310-400
T1 chain: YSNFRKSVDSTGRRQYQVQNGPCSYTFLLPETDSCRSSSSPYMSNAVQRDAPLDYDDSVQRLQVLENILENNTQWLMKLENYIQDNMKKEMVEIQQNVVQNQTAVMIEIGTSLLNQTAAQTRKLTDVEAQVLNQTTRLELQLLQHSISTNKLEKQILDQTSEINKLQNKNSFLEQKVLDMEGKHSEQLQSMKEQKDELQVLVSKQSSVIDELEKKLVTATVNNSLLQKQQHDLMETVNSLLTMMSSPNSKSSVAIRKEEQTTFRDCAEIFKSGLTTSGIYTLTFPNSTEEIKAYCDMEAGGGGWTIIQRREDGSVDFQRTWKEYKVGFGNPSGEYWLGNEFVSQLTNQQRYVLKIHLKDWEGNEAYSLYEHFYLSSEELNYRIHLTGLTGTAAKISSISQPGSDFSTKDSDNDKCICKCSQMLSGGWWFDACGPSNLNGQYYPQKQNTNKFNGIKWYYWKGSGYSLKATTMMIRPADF

T2: human Ang-2 H375Q (human, UniProt O15123 19-496)
T2 sequence: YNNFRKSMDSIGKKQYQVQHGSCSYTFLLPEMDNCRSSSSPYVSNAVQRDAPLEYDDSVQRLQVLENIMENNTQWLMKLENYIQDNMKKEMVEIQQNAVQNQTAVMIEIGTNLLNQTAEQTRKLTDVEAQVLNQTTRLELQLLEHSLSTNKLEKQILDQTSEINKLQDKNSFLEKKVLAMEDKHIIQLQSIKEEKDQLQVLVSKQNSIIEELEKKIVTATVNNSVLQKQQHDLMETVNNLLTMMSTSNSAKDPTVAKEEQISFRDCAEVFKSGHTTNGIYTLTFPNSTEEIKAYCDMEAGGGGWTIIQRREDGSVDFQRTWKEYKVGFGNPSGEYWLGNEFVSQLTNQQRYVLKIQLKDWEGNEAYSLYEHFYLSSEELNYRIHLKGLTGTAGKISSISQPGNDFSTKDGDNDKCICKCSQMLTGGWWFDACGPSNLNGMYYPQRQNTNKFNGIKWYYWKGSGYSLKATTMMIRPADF

T3: human Angiopoietin-1 (human, UniProt Q15389 20-498, limits assumed)
T3 construct: Bought recombinant protein (R&D Systems 293-AN-025/CF) or supernatant of transfected 293F cells; also called Ang-1; recombinant Ang-1
T3 sequence: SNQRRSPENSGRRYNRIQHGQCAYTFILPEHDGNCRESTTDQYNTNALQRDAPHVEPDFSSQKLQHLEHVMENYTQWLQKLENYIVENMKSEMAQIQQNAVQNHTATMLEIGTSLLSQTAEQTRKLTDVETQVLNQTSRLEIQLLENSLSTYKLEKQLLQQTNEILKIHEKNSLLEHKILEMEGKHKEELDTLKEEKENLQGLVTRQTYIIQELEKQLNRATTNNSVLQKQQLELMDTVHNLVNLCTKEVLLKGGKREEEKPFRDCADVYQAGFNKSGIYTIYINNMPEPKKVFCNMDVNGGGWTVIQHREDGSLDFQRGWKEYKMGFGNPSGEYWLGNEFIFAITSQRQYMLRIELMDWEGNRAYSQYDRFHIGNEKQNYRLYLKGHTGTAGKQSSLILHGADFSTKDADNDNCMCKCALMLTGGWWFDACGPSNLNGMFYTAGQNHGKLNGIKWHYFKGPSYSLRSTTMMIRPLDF

T4: human Angiopoietin-2 (human, UniProt O15123 19-496)
T4 construct: Mostly bought recombinant protein (R&D Systems 623-AM/CF, 623-AN; biotinylated BT623) or supernatant of transfected 293F cells; also called Ang-2; rhAng-2
T4 sequence: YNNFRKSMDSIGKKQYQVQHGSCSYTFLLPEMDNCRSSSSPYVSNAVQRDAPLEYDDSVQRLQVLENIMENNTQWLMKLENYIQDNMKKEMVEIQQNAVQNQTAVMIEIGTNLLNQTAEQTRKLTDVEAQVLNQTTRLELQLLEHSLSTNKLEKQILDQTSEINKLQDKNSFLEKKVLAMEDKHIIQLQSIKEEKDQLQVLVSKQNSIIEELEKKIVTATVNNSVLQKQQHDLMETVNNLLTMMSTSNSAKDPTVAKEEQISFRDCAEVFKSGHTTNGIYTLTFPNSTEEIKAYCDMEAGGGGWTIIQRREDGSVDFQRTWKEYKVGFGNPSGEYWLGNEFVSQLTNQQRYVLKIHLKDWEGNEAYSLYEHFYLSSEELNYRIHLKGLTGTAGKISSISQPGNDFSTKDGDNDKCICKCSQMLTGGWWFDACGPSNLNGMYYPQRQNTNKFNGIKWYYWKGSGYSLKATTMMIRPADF


Experiments:
[1] = biological target: T1, Mouse/Human chimeric Ang-2 with the …; experiment: ELISA
[2] = biological target: T2, human Ang-2 H375Q; experiment: ELISA
[3] = biological target: T3, human Angiopoietin-1; experiment: capture ELISA
Experimental: The binding of the top 27 human monoclonal antibodies was detected with a HRP-conjugated goat anti-human antibody, followed by colorimetric horseradish peroxidase substrate (Enhanced K-Blue TMB substrate Neogen Corporation). The absorbance of each well of the ELISA plates was measured at 450 nm on a microplate autoreader.

[4] = biological target: T4, human Angiopoietin-2; experiment: Biacore, mAb captured
Summary of the method: (§1)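 Purified mAbs (~8 μg/ml in HBS-P with 100 μg/ml BSA and 10 mg/mL carboxymethyldextran) captured on a goat anti-human antibody CM5 surface by SPR, 42 s contact then 5 min stabilisation. Binding kinetics from global fit to a 1:1 interaction model.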

[5] = biological target: T4, human Angiopoietin-2; experiment: cell-based or functional assay
[6] = biological target: T4, human Angiopoietin-2; experiment: Biacore; kd held constant (*)
Summary of the method: as §1

[7] = biological target: T4, human Angiopoietin-2; experiment: inhibition of rhAng-2 binding to its receptor

% of binding to human Ang-2 [1] [%] | % of binding to human Ang-2 [2] [%] | binding result [3] | Kd [4] [nM] | kon [4] [M⁻¹ s⁻¹] | EC50, inhibition of Ang-2-induced Tie2 phosphorylation (HEK293F/Tie2, ELISA) [5] [mg/L] | koff [6] [s⁻¹] | OD650 in inhibition assay [7] [OD650] | Binder
20 | 100 | no binding | ≤ 0.037 | 270000 | 0.016 | ≤ 1e-05 | 0.0874 | mAb 5.88.3 (antibody, V domains shown, Human hybridoma IgG (XenoMouse); also called x5.88) VH: EVQMVESGGGLVQPGGSLRLSCAASGFTLRSYWMSWVRQAPGKGLEWVANIKEDGSEKYHVDSVKGRFTISRDNAENSLFLQMSSLRAEDTAVYYCARDMEASAGLFDYWGQGTLVTVSS VL: EIVMTQSPATLSVSPGERAILSCRASQSISSNLAWYQQKPGQAPRLLIYGASTRATGIPARFSGSGSGTEFTLTISSLQSEDFAVYYCQQYNYWWTFGQGTKVEIKR
15 | 100 |  | ≤ 0.033 | 300000 | 0.046 | ≤ 1e-05 | 0.0558 | mAb 3.3.2 (antibody, V domains shown, Human hybridoma IgG (XenoMouse); also called 3.3.1; x3.3) VH: EVQLVESGGGLVQPGGSLRLSCAVSGFTFSSYWMSWVRQAPGKGLEWVANIKQDGSEKYYVDSVKGRFTISRDNAKNSLYLQMNSLRAEDTAVYYCARDQGIAVAGPFDYWGQGTLVTVSS VL: EIVMTQSPATLSVSPGERATLSCRASQTVSSDLAWYQQKPGQAPRLLIYGASIRATGIPARFSGSGSGTEFTLTISSLQSEDFAVYSCQQYYNWWTFGQGTKVEIKR
